Source: patent US20020015966A1, “Effector-specific protein assembly and uses thereof” (priority 2000, published 2002)

Key:
[1] = target: T1, GST-TR hinge fusion / TR LBD (Homo sapiens, UniProt P10828); experiment: GST pulldown assay of GST-TR204-260 with in vitro translated TR236-461; type: binding; details: peptide 10 and 100 μM
T1 construct: GST pulldown assay of GST-TR204-260 with in vitro translated TR236-461; made in house; host or cells: The GST fusion was made in E. coli BL21; The LBD fragment was translated in vitro
T1 sequence (P10828 236-461): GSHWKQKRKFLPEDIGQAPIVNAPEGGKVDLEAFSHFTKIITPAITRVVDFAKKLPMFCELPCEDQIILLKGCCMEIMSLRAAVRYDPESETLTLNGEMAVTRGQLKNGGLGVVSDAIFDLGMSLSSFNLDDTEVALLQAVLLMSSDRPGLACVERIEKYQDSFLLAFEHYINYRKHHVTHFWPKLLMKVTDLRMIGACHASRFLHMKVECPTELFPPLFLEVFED
T1 sequence (P10828 204-260 partner limits assumed): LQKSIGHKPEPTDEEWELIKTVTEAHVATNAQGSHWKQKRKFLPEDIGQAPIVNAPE
Excerpt: FIGS. 5A and 5B illustrate that N-CoR enhances the hinge-LBD interaction in the absence of ligand. In FIG. 5A, HepG2 cells were cotransfected with Gal4-hinge and VP16-LBD fusions of TR (left panel), RAR (middle panel), or RXR (right panel) in the presence or absence of Gal-RIP13ΔN4 construct and treated with the corresponding ligands or vehicle alone. […] Wt and mutant peptides of N-CoR IDI (top and bottom panels, respectively) were included where indicated at concentrations of 10 (+) and 100 (++) μM.
The appropriate GST fusion constructs were induced with […] and coupled to glutathione beads (Sepharose, Pharmacia). Interactions were performed overnight at 4° C. in buffer containing 20 mM Hepes pH 7.6, 100 mM NaCl, 20% glycerol, 2 mg/ml BSA, 1 mM DTT, and various protease inhibitors. The beads were subsequently washed twice with the interaction buffer containing 0.05% Triton X-100 and once with 50 mM Tris-HCl pH 8. Ligands or peptides were included in the washes where appropriate. The bound proteins were eluted with 15 mM glutathione (Sigma) for 15 minutes at 37° C. and analyzed by SDS-PAGE and fluorography (Amplify, Amersham). The sequence of the N-CoR RID peptide was […].

[2] = target: T2, TR 204-461 (Homo sapiens, UniProt P10828); experiment: protease digestion assay (trypsin) of TR LBD; type: biochemical; details: in the absence of ligand; 1 mM peptide, trypsin 7 minutes at room temperature
T2 construct: Flag (N); made in house; host or cells: in vitro translation
T2 sequence (P10828 204-461): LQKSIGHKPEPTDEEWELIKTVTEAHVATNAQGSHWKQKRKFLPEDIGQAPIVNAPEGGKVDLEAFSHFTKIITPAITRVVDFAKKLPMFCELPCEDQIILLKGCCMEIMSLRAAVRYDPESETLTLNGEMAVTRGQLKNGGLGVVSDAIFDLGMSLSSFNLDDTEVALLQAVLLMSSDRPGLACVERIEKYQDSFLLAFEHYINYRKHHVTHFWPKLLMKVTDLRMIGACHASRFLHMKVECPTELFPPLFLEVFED
Description: The mixture was digested with trypsin for 7 minutes at room temperature and analyzed by SDS-PAGE.
Subsequently, wild-type or mutated N-CoR peptides were added to final concentrations of 1 mM, and the reaction mixtures was further incubated for 30 minutes on ice. BSA was added to the reactions with no peptides to supplement for equal protein concentration in all the reaction mixtures. Finally, […] of trypsin was added to the indicated tubes, and the protein digestion was performed at room temperature for 7 minutes. The reactions were stopped with the addition of SDS-sample buffer and boiling. The samples were run on a 15% SDS-gel that was then dried and exposed to film for 1 hour.

[3] = test system: ER-α; experiment: mammalian two-hybrid assay of ER-α helix 1-LBD interaction; type: cell-based; details: HepG2 cells, G5E1B-Luc reporter
Description: Shown are mammalian two-hybrid assays of Gal fusions containing helix 1 of ER-α with VP16 fusions of the ER LBD containing or lacking helix 1. HepG2 cells were cotransfected with G5E1B-Luc reporter, the appropriate combination of the expression vectors, and a ligand or vehicle. “E2” denotes estradiol; “4HT” denotes 4-hydroxy tamoxifen; and “ICI” denotes ICI-172,780.
HepG2 cells were maintained in Dulbecco's modified Eagle medium supplemented with 10% fetal calf serum. For transfection the cells were plated the day before into 24-well dishes at density 10^5 cells/well in DMEM supplemented with 10% charcoal-stripped serum. Transfections were performed by the calcium phosphate co-precipitation method. […] The amount of DNA was adjusted to 500 ng total per well with pBluescript vector.
The cells were washed with PBS the next morning and fresh media containing the appropriate ligands was added. The cells were harvested 24 hours later and assayed for luciferase (Molecular Probes) and β-Galactosidase activity (Tropix) on an MLX luminometer. All experiments were performed at least twice in duplicate.

Substance | interaction between a GST-TR hinge fusion and the TR LBD ([1]; in the absence of ligand) | interaction between a GST-TR hinge fusion and the TR LBD ([1]; in the presence of ligand) | new protease resistant species with a lower molecular weight [2] | stabilization of TR LBD fragment against trypsin digestion [2] | hinge-LBD interaction of ER-α [3]
ASNLGEDIIKALMGSFDD [wild type NCoR RID I peptide] | strongly stimulated | did not affect | presence of a new protease resistant species | some apparent stabilization | 
4-hydroxy tamoxifen |  |  |  |  | stronger effect
